From patent US20180298101A1

What was measured:
[1] = biological target: JAK1 kinase domain (JH1) (human) (UniProt P23458); assay: cell-based or functional assay
[2] = biological target: JAK2 kinase domain (JH1) (UniProt O60674); assay: cell-based or functional assay
[3] = biological target: JAK3 kinase domain (JH1) (UniProt P52333); assay: cell-based or functional assay
[4] = biological target: TYK2 kinase domain (JH1) (UniProt P29597); assay: cell-based or functional assay
[5] = biological target: JAK1-Y1034 phosphopeptide with an alanine substitution at the +3 position (human); assay: ITC, alanine-substituted phosphopeptide
[6] = biological target: JAK1 activation loop phosphopeptide (Tyr1034 phosphorylated) (human); assay: ITC

hCIS-SH2-BC complex (ternary complex of human GST-CIS-SH2 construct, residues 66-258 with PEST region 174-202 deleted, with Elongin B and Elongin C) (from UniProt Q9NSE2 66-258; Q15370 1-118; P83940 17-112)
IC50 of inhibition of JAK1 phosphorylation of a substrate peptide (in vitro kinase assay) [1]: 120 nM | efficiency of JAK1 kinase inhibition against SOCS1 as reference [1]: 100 fold | fold difference of kinase inhibition, JAK1 against JAK2 (in vitro kinase assay) [2]: 20 fold | fold difference of kinase inhibition, JAK1 against JAK3 (in vitro kinase assay) [3]: 20 fold | fold difference of kinase inhibition, JAK1 against TYK2 (in vitro kinase assay) [4]: 20 fold

human CIS lacking both the N-terminal region (residues 1-66) and the PEST motif (ΔNT/ΔPEST) in trimeric complex with elongin B and elongin C (from UniProt Q9NSE2 67-258; Q15370 1-118; Q15369 17-112)
IC50 of inhibition of the JAK1 kinase domain (JH1), in vitro kinase reaction [1]: 600 nM | fold reduction of binding against the wild-type JAK1-Y1034 phosphopeptide [5]: 4 fold

human CIS lacking the N-terminal 34 residues (ΔN34) in trimeric complex with elongin B and elongin C (from UniProt Q9NSE2 35-258; Q15370 1-118; Q15369 17-112)
Kd [6]: 2200 to 10000 nM
